Experimental data from the supplement of paper PMC10126150.
± gives the standard deviation of the averaged measurements.

Tested on: ATP
Test: switch fluorescence ratio, 500 uM ATP over buffer (Cy3 cluster intensity, sum of 5 cycles each) (fold (ratio)); higher = stronger signal-on switching upon ATP binding; sequences stand for … in TCGTCGGCAGCGTCAGATGTGTATAAGAGACAGTTTTTTTTTTTTTTTTTTTTTTTTT…TC
Settings: aptamer strand: ATP DNA aptamer (quencher-CACCTGGGGGAGTATTGCGGAGGAAGG + anchor), 100 nM annealed; ATP concentration: 500 uM
Summary of the method: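 Exposure to 500 uM ATP lasted 15 min at 22 °C before imaging, and a selection-buffer image was taken beforehand, for Cy3-labelled switching-strand clusters on a modified Illumina MiSeq flow-cell annealed to 100 nM quencher-labelled ATP aptamer. Five buffer/ATP cycles were run with NaOH stripping and re-annealing between them. The fluorescence ratio per cluster is summed target-cycle over summed buffer-cycle Cy3 intensity, averaged per switch-domain sequence. Clusters outside 100-1000 RFU were excluded.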

| Sequence | switch fluorescence ratio |
| --- | --- |
| ACTTAATGTA | 1 ± 0.03 |
| ACTTAATTGT | 1.07 ± 0.084 |
| ACTTAGGCGG | 1 ± 0.011 |
| ACTTAGGGGA | 1.02 ± 0.036 |
| ACTTATAATT | 1.02 ± 0.027 |
| ACTTATCGGG | 1 ± 0.029 |
| ACTTATTTTT | 1 ± 0.019 |
| ACTTCAAGGA | 1.04 ± 0.069 |
| ACTTCTAACT | 1.07 ± 0.034 |
| ACTTCTCGGT | 0.992 ± 0.017 |
| ACTTCTGGAG | 2.15 ± 0.028 |
| ACTTGAAAAT | 1.002 ± 0.0095 |
| ACTTGATTTT | 1.02 ± 0.015 |
| ACTTGCACTC | 1.34 ± 0.057 |
| ACTTGCCTGT | 1.005 ± 0.01 |
| ACTTGGCAAA | 1.16 ± 0.02 |
| ACTTGGCATC | 1.13 ± 0.043 |
| ACTTGGGCGT | 1.03 ± 0.038 |
| ACTTGGTGTG | 1.01 ± 0.052 |
| ACTTGGTTGG | 0.9869 ± 0.00088 |
| ACTTGTAGCT | 1.02 ± 0.011 |
| ACTTGTCGCG | 1.02 ± 0.033 |
| ACTTGTGGGC | 0.973 ± 0.045 |
| ACTTTATCTT | 1.063 ± 0.01 |
| ACTTTATTTC | 1.011 ± 0.006 |

| Sequence | switch fluorescence ratio |
| --- | --- |
| ACTTTCGGGA | 0.995 ± 0.011 |
| ACTTTCTGGA | 1 ± 0.024 |
| ACTTTCTTAC | 1.12 ± 0.017 |
| ACTTTGAATG | 1.02 ± 0.027 |
| ACTTTGATGT | 1.01 ± 0.012 |
| ACTTTGGTTA | 1.04 ± 0.042 |
| ACTTTGTCTG | 0.991 ± 0.041 |
| ACTTTTAGTT | 1.05 ± 0.018 |
| ACTTTTGACT | 0.982 ± 0.022 |
| AGAAACAGGA | 1.04 ± 0.04 |
| AGAAAGGCGG | 0.9715 ± 0.0027 |
| AGAAAGGGGT | 1.01 ± 0.055 |
| AGAAAGTGGT | 0.992 ± 0.017 |
| AGAAATTCAT | 0.992 ± 0.029 |
| AGAAATTGGA | 1.02 ± 0.044 |
| AGAAATTTGG | 1.01 ± 0.02 |
| AGAACATAGA | 0.986 ± 0.0025 |
| AGAACCGTGT | 0.989 ± 0.041 |
| AGAACGTCTA | 1 ± 0.054 |
| AGAAGAGCTT | 1.011 ± 0.0024 |
| AGAAGAGTTT | 0.95 ± 0.018 |
| AGAAGATTGA | 0.999 ± 0.019 |
| AGAAGGGTAT | 0.976 ± 0.017 |
| AGAAGGTGGG | 1.01 ± 0.021 |
| AGAAGGTTTG | 0.963 ± 0.01 |

| Sequence | switch fluorescence ratio |
| --- | --- |
| AGAAGTACGT | 1.04 ± 0.013 |
| AGAAGTCGGA | 1 ± 0.011 |
| AGAAGTGGAG | 1.004 ± 0.01 |
| AGAAGTTGAG | 0.984 ± 0.01 |
| AGAAGTTTCG | 1.011 ± 0.0068 |
| AGAATATGGG | 0.994 ± 0.011 |
| AGAATATGTT | 0.983 ± 0.014 |
| AGAATCACTG | 1.08 ± 0.04 |
| AGAATGATCG | 0.994 ± 0.033 |
| AGAATGATTG | 0.988 ± 0.017 |
| AGAATGGGTT | 1.03 ± 0.029 |
| AGAATTCCGT | 0.992 ± 0.01 |
| AGAATTTCAT | 1.01 ± 0.0045 |
| AGAATTTGTT | 1 ± 0.024 |
| AGACAAAAAT | 1.026 ± 0.0065 |
| AGACACGTTA | 1.28 ± 0.017 |
| AGACAGGGGG | 1.11 ± 0.2 |
| AGACATTCCT | 1.3 ± 0.34 |
| AGACCTCTTT | 0.988 ± 0.02 |
| AGACGAGGCT | 1.01 ± 0.021 |
| AGACGGGGGC | 0.978 ± 0.12 |
| AGACTAAAAG | 0.986 ± 0.015 |
| AGACTGAATT | 1.03 ± 0.02 |
| AGACTGATAC | 1.08 ± 0.025 |
| AGACTGGGCT | 1.01 ± 0.011 |

| Sequence | switch fluorescence ratio |
| --- | --- |
| AGACTGGGTT | 0.971 ± 0.012 |
| AGACTGTTAG | 0.976 ± 0.029 |
| AGACTTGTTA | 0.971 ± 0.021 |
| AGACTTTTGG | 0.987 ± 0.011 |
| AGAGAAAGGC | 1.08 ± 0.051 |
| AGAGAACGCT | 0.967 ± 0.035 |
| AGAGACTGAG | 1.045 ± 0.0026 |
| AGAGAGCGAA | 1.01 ± 0.022 |
| AGAGAGGACG | 1.02 ± 0.033 |
| AGAGAGTGAC | 0.981 ± 0.01 |
| AGAGAGTTAT | 1.02 ± 0.011 |
| AGAGAGTTTG | 1.01 ± 0.02 |
| AGAGATGTGG | 0.958 ± 0.036 |
| AGAGCATTTG | 1.01 ± 0.058 |
| AGAGCCACTG | 1.01 ± 0.024 |
| AGAGCCGGGA | 0.988 ± 0.043 |
| AGAGCGGA | 0.981 ± 0.011 |
| AGAGCGGCAA | 2.81 ± 2.4 |
| AGAGGAAAGG | 1.022 ± 0.0041 |
| AGAGGAGGGA | 0.9737 ± 0.0047 |
| AGAGGAGGGG | 1.01 ± 0.042 |
| AGAGGATGAT | 0.962 ± 0.013 |
| AGAGGATTTT | 1 ± 0.015 |
| AGAGGCAAGA | 1.16 ± 0.028 |
| AGAGGCAAGG | 1.0062 ± 0.0002 |

| Sequence | switch fluorescence ratio |
| --- | --- |
| AGAGGCCGAT | 1.022 ± 0.0012 |
| AGAGGCGTTA | 1.01 ± 0.025 |
| AGAGGGAATG | 0.975 ± 0.03 |
| AGAGGGACAT | 1.09 ± 0.1 |
| AGAGGGCATT | 0.967 ± 0.045 |
| AGAGGGGGGG | 0.999 ± 0.038 |
| AGAGGGGGTG | 0.96 ± 0.013 |
| AGAGGGGTTG | 0.972 ± 0.016 |
| AGAGGGTACG | 1.06 ± 0.017 |
| AGAGGGTCTC | 0.973 ± 0.058 |
| AGAGGGTTAC | 0.999 ± 0.036 |
| AGAGGGTTTT | 0.988 ± 0.031 |
| AGAGGTAAGG | 0.983 ± 0.019 |
| AGAGGTAGGG | 0.984 ± 0.035 |
| AGAGGTGTGC | 1.049 ± 0.01 |
| AGAGGTGTGG | 0.991 ± 0.05 |
| AGAGGTTAAG | 1.03 ± 0.08 |
| AGAGGTTATT | 0.9994 ± 0.0069 |
| AGAGTAAGTG | 0.962 ± 0.025 |
| AGAGTAGTGT | 0.99 ± 0.032 |
| AGAGTAGTTG | 0.9708 ± 0.0076 |
| AGAGTATGAA | 1 ± 0.032 |
| AGAGTATGGG | 1.01 ± 0.038 |
| AGAGTGCGGT | 1.011 ± 0.006 |
| AGAGTGGGGT | 0.962 ± 0.033 |

| Sequence | switch fluorescence ratio |
| --- | --- |
| AGAGTGGGTG | 0.978 ± 0.013 |
| AGAGTGGTGG | 0.9769 ± 0.0097 |
| AGAGTGTTTC | 0.943 ± 0.038 |
| AGAGTTATGC | 1.022 ± 0.01 |
| AGAGTTGAGA | 1.0102 ± 0.001 |
| AGAGTTGTTA | 0.996 ± 0.013 |
| AGAGTTTGAA | 1.02 ± 0.024 |
| AGAGTTTTCT | 0.9916 ± 0.0094 |
| AGATACGAGG | 1.03 ± 0.011 |
| AGATACTGCA | 1.05 ± 0.0087 |
| AGATAGAGTA | 1.006 ± 0.0033 |
| AGATAGATTG | 1 ± 0.04 |
| AGATAGGG | 0.96188 ± 0.00038 |
| AGATAGGGAT | 1.04 ± 0.053 |
| AGATATAATA | 1.02 ± 0.035 |
| AGATATAGCG | 1.029 ± 0.0076 |
| AGATATCATG | 0.973 ± 0.037 |
| AGATATGGTG | 1.01 ± 0.089 |
| AGATATGTGT | 0.998 ± 0.013 |
| AGATATTAGA | 1.017 ± 0.0048 |
| AGATATTGGG | 0.992 ± 0.068 |
| AGATCGCTTG | 0.975 ± 0.0019 |
| AGATCGTGGG | 1.04 ± 0.015 |
| AGATCTTGTG | 1 ± 0.022 |
| AGATGAATGC | 0.989 ± 0.011 |

| Sequence | switch fluorescence ratio |
| --- | --- |
| AGATGACGTT | 1.01 ± 0.046 |
| AGATGACTTT | 0.98 ± 0.034 |
| AGATGAGGGC | 1.04 ± 0.022 |
| AGATGAGTGT | 1 ± 0.02 |
| AGATGATCAG | 0.982 ± 0.02 |
| AGATGCATGG | 1.02 ± 0.025 |
| AGATGCCATG | 1.032 ± 0.0075 |
| AGATGCCGAC | 1.02 ± 0.054 |
| AGATGCGGTA | 1.01 ± 0.029 |
| AGATGCTGGT | 0.994 ± 0.015 |
| AGATGGGGGG | 1.02 ± 0.033 |
| AGATGGGGGT | 1.016 ± 0.0053 |
| AGATGGTAGG | 0.986 ± 0.023 |
| AGATGTAGTG | 0.9948 ± 0.0036 |
| AGATGTCTAC | 0.989 ± 0.018 |
| AGATTAGCGC | 0.9812 ± 0.0063 |
| AGATTATGGG | 0.974 ± 0.033 |
| AGATTGTTGG | 0.989 ± 0.019 |
| AGATTGTTTA | 0.981 ± 0.019 |
| AGATTTAGAG | 1.011 ± 0.0032 |
| AGATTTCGGC | 1.039 ± 0.0015 |
| AGATTTTCTG | 1.01 ± 0.025 |
| AGCAAAATGG | 1.0258 ± 0.00022 |
| AGCAAACTTG | 1.04 ± 0.049 |
| AGCAAAGAGC | 0.99 ± 0.037 |

| Sequence | switch fluorescence ratio |
| --- | --- |
| AGCAAATTCT | 1.16 ± 0.072 |
| AGCAACCTTT | 1.16 ± 0.039 |
| AGCACGCACA | 1.77 ± 0.06 |
| AGCACGTTTT | 1.01 ± 0.025 |
| AGCAGAGGAC | 0.971 ± 0.058 |
| AGCAGCGCGG | 1.04 ± 0.042 |
| AGCAGTGGAC | 1.23 ± 0.016 |
| AGCAGTTTTT | 0.996 ± 0.028 |
| AGCATGATGG | 1.04 ± 0.021 |
| AGCATGGCTG | 1.01 ± 0.001 |
| AGCATGGGAG | 0.991 ± 0.034 |
| AGCATGTCTG | 0.986 ± 0.01 |
| AGCATTTTCA | 1.24 ± 0.32 |
| AGCCAGAAGT | 0.991 ± 0.022 |
| AGCCAGGTGG | 1.27 ± 0.14 |
| AGCCATATTT | 1.04 ± 0.028 |
| AGCCATGGCT | 0.9927 ± 0.0099 |
| AGCCATGTGA | 1.01 ± 0.011 |
| AGCCATTTGT | 1.015 ± 0.0063 |
| AGCCCCTTAG | 1.002 ± 0.0065 |
| AGCCCTAAGG | 0.979 ± 0.045 |
| AGCCCTGGGG | 1.02 ± 0.011 |
| AGCCGGCTGC | 1.03 ± 0.024 |
| AGCCGGGTAT | 1.01 ± 0.016 |
| AGCCGGTTCC | 1.014 ± 0.0092 |
